The target in the test is c-fos leucine zipper helix fused via (Gly4Ser)3 linker to BLIP-D49A, fused via a similar linker to β-lactamase (tri-partite cis-inhibited β-lactamase fusion) (UniProt P01100). The experiment in a line: cell-based or functional assay.

For the substance “BIP (β-lactamase-S70A) without amino-terminal c-jun helix (from UniProt P62593 24-286)”, the % plating efficiency on 10 µg/ml ampicillin, 100 µM IPTG is 100%; the % plating efficiency on 25 µg/ml ampicillin, 100 µM IPTG was determined as 0.7%; the % plating efficiency on 50 µg/ml ampicillin, 100 µM IPTG is less than 0.01%; the % plating efficiency on 100 µg/ml ampicillin, 100 µM IPTG was less than 0.01%.

As to “BLIP-F142A without amino-terminal c-jun helix (from UniProt P35804 37-201)”, the % plating efficiency on 10 µg/ml ampicillin, 100 µM IPTG was determined as 100%; the % plating efficiency on 25 µg/ml ampicillin, 100 µM IPTG is 4%; the % plating efficiency on 50 µg/ml ampicillin, 100 µM IPTG was less than 0.01%; the % plating efficiency on 100 µg/ml ampicillin, 100 µM IPTG is less than 0.01%.

“c-jun leucine zipper helix fused via (Gly4Ser)3 linker to BIP (β-lactamase-S70A) (from UniProt P05412 276-315; P62593 24-286)”: the % plating efficiency on 10 µg/ml ampicillin, 100 µM IPTG was found to be 100%; the % plating efficiency on 10 µg/ml ampicillin, 100 µM IPTG, c-jun-trx co-expressed as inhibitor is 100%; the % plating efficiency on 25 µg/ml ampicillin, 100 µM IPTG was determined as 100%; the % plating efficiency on 25 µg/ml ampicillin, 100 µM IPTG, c-jun-trx co-expressed as inhibitor is 100%. In addition, the % plating efficiency on 50 µg/ml ampicillin, 100 µM IPTG is 100%; the % plating efficiency on 50 µg/ml ampicillin, 100 µM IPTG, c-jun-trx co-expressed as inhibitor was found to be 9%; the % plating efficiency on 100 µg/ml ampicillin, 100 µM IPTG is 100%; the % plating efficiency on 100 µg/ml ampicillin, 100 µM IPTG, c-jun-trx co-expressed as inhibitor was determined as 0.08%. In addition, the fold reduction of plating efficiency on 100 µg/ml ampicillin by co-expressed c-jun-trx was more than 1000 fold.

With “c-jun leucine zipper helix fused via (Gly4Ser)3 linker to BLIP-F142A (from UniProt P05412 276-315; P35804 37-201)”, the % plating efficiency on 10 µg/ml ampicillin, 100 µM IPTG was 100%; the % plating efficiency on 10 µg/ml ampicillin, 100 µM IPTG, c-jun-trx co-expressed as inhibitor turned out to be 100%; the % plating efficiency on 25 µg/ml ampicillin, 100 µM IPTG stood at 100%; the % plating efficiency on 25 µg/ml ampicillin, 100 µM IPTG, c-jun-trx co-expressed as inhibitor is 100%. Moreover, the % plating efficiency on 50 µg/ml ampicillin, 100 µM IPTG was 100%; the % plating efficiency on 50 µg/ml ampicillin, 100 µM IPTG, c-jun-trx co-expressed as inhibitor is 75%; the % plating efficiency on 100 µg/ml ampicillin, 100 µM IPTG came to 100%; the % plating efficiency on 100 µg/ml ampicillin, 100 µM IPTG, c-jun-trx co-expressed as inhibitor came out at 0.5%.

(Values after patent publication US20030198971A1.)
